Source: patent publication US20250189544A1 (CASI PHARMACEUTICALS, published 2025)

T1: Human CD38 (human, UniProt P28907 1-300)
T1 sequence: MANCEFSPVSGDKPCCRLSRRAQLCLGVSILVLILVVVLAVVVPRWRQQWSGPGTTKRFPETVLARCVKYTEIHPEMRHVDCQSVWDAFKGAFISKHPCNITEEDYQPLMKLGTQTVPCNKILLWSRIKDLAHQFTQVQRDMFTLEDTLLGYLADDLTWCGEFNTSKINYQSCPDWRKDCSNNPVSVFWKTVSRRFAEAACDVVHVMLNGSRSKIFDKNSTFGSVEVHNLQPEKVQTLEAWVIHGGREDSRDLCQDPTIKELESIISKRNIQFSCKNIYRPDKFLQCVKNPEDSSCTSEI


Key:
[1] = target: T1, Human CD38; assay: flow cytometry on red blood cells of Donor 1; negative control
[2] = target: T1, Human CD38; assay: flow cytometry on red blood cells of Donor 3; negative control
[3] = target: T1, Human CD38; assay: flow cytometry on red blood cells of Donor 2; negative control
[4] = target: T1, Human CD38; assay: flow cytometry on Ramos cells expressing CD38; negative control, ambiguous regression curve
[5] = target: T1, Human CD38; assay: flow cytometry on Raji cells expressing CD38
Method: (§1) Cell lines/primary cell type used. […] Daudi, Raji, Ramos and cells were cultured in log-phase in RPMI-1640 Medium (ATCC 30-2001) supplemented with 10% FCS, 2 mM L-glutamine, 100 IU/ml penicillin, 100 μg/ml streptomycin and 1 mM sodium pyruvate (all from ThermoFisher) with viability of >85% as determined by automated cell counter (Countess II FL Automated Cell Counter; ThermoFisher; catalog #AMQAF1000) prior to experiments.
(§2) Cell staining and flow cytometry. All experiments were done in triplicates using a 96-well plate format. 50,000 cells were plated in each well of a 96-well round bottom tissue culture treated plate. […] Following a wash step with FACS cell staining buffer, cells were incubated with secondary antibody (rabbit anti-human Fcγ F(ab′)2 labeled with Alexa Fluor647; Jackson ImmunoResearch Catalog #309-606-008) at 5 μg/ml for 30 minutes on ice in the dark. Cells were washed once more with FACS cell staining buffer and analyzed by flow cytometry using a BD Biosciences FACSCalibur flow cytometer (San Jose, CA). FSC vs SSC gating was used to identify cells of interest. A total of 3,000 live single cells were recorded for each sample and corresponding fluorescent signal intensity histograms were analyzed. The mean fluorescence intensity (MFI) was calculated using FlowJo analysis software (Ashland, Oregon) for each antibody concentration.

[6] = target: T1, Human CD38; assay: flow cytometry on Raji cells expressing CD38; text value differs from Table 1 (273)
Method: as §1, §2

[7] = target: T1, Human CD38; assay: flow cytometry on Daudi cells expressing CD38
Method: as §1, §2

[8] = target: T1, Human CD38; assay: flow cytometry on Ramos cells expressing CD38
Method: as §1, §2

Molecule | Max MFI [1] [MFI] | Max MFI [2] [MFI] | Max MFI [3] [MFI] | EC50 [4] [ng/mL] | EC50 [5] [µg/mL] | EC50 [6] [µg/mL] | EC50 [7] [µg/mL] | EC50 [8] [µg/mL]
Human IgG1 isotype control antibody | 2560 | 1960 | 2110 | 1 |  |  |  | 
CID103 (aCD38-b-348) (antibody, V domains shown) VH: QLQLQESGPGLVKPSETLSLTCTVSGGSISSSDYYWGWIRQPPGKGLEWIGSIYYSGSTYYNPSLKSRVTISVDTSKNQFSLKLSSVTAADTAVYYCARGQYSSGWYAYPFDMWGQGTMVTVSS VL: EIVLTQSPGTLSLSPGERATLSCRASQSVRSSYLAWYQQKPGQAPRLLIYGASSRATGIPDRFSGSGSGTDFTLTISRLEPEDFAVYYCQQDGNVYTFGGGTKVEIK |  |  |  |  | 0.273 | 0.373 | 0.382 | 0.412
